Measurements as given in patent US20170022281A1 (AbbVie / Abbott, published 2017).
Numbering of substitutions follows the chain as printed.

T1: human PRLR (Biacore antigen) (human, UniProt P16471 25-234, limits assumed)
T1 construct: The construct injected over captured antibody is not described (a soluble form is likely); also called huPRLR
T1 sequence: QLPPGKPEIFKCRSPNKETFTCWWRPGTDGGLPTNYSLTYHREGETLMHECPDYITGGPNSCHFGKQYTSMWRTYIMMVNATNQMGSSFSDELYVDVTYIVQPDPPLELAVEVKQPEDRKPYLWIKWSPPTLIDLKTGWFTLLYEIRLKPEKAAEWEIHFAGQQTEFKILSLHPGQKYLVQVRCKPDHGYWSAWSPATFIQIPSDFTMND

T2: cyno PRLR ECD-his6 protein (cyno)
T2 chain: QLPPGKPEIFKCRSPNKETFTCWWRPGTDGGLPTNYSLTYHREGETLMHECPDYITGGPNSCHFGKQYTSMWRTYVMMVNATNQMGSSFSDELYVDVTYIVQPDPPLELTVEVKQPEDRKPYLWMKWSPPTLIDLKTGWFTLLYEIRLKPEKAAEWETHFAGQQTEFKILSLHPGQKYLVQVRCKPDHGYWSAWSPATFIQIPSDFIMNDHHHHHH

T3: human PRLR ECD-Fc fusion protein (human, UniProt P16471 25-233)
T3 construct: not shown: Fc region (captured by goat anti-human Fc)
T3 sequence: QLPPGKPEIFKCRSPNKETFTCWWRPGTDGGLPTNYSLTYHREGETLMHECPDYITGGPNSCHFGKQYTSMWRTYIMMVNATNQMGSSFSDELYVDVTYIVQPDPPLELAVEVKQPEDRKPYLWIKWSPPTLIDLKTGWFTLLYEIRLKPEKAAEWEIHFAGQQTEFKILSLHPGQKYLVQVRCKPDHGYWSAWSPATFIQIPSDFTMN

T4: murine PRLR (Biacore antigen) (murine, UniProt Q08501 20-229, limits assumed)
T4 construct: also called muPRLR
T4 sequence (looked up): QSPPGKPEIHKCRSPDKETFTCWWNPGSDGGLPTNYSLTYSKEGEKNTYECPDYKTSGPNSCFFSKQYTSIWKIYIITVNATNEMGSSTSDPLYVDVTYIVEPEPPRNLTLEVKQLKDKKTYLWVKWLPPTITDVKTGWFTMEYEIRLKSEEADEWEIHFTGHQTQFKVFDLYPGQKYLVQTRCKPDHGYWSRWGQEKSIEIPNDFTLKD

T5: cyno PRLR (Biacore antigen) (cyno, UniProt A0A2K5WXK1 25-234)
T5 construct: also called cyPRLR
T5 sequence: T2 chain

B1: Ab48 (antibody, human IgG1, kappa, V domains shown)
VH: EVQLVQSGAEVKKPGASVKVSCKASGYTFTDYNIHWVRQAPGQGLEWIGYIYPNNDGTGYNQKFKSRATLTVDNSTSTAYMELRSLRSDDTAVYYCARGDGNYVGDMDYWGQGTTVTVSS
VL: DIQMTQSPSSLSASVGDRVTITCRASENIYSYLAWYQQKPGKPPKLLVYNAKTLAEGVPSRFSGSGSGTDFTLTISSLQPEDFATYYCQHHYATPFTFGQGTKLEIKR
notes: humanized from Ab8; G1; also called Ab3 HC.1a and Ab3 LC.1a
B2: Ab39 (antibody, human IgG1, kappa, V domains shown)
VH: EVQLVQSGAEVKKPGSSVKVSCKASGYTFTSYWIHWVRQAPGQGLEWIGEIDPSDSYTNYNQKFKGRATLTVDKSSSTAYMELSSLRSEDTAVYYCARSFFTNWFAYWGQGTLVTVSS
VL: DVVMTQTPLSLSVTPGQPASISCRSSQSLVHSNGNTYLHWYLQKPGQSPQLLIYKVSNRFSGVPDRFSGSGSGTDFTLKISRVEAEDVGVYFCSQSTHVPFTFGGGTKVEIKR
notes: humanized from Ab7; G1; also called Ab4 HC.1a and Ab4 LC.1a
B3: Ab40 (antibody, human IgG1, kappa)
heavy: not shown
light: DVVMTQTPLSLSVTPGQPASISCRSSQSLVHSNGNTYLHWYLQKPGQSPQLLIYKVSNRFSGVPDRFSGSGSGTDFTLKISRVEAEDVGVYYCSQSTHVPFTFGGGTKVEIKRTVAAPSVFIFPPSDEQLKSGTASVVCLLNNFYPREAKVQWKVDNALQSGNSQESVTEQDSKDSTYSLSSTLTLSKADYEKHKVYACEVTHQGLSSPVTKSFNRGEC
notes: humanized from Ab7; G1; also called Ab4 HC.1a and Ab4 LC.1b
B4: Ab30 (antibody, human IgG1, kappa, V domains shown)
VH: B2 VH with Y32F, I34M, E50V, S56T, K74E, S99G, F100D, F101Y, T102S, A106T
VL: B2 VL with S28R, F101W
notes: humanized from Ab5; G1; also called Ab2 HC.1a and Ab2 LC.1a
B5: Ab19 (antibody, human IgG1, kappa, V domains shown)
VH: EVQLVQSGAEVKKPGSSVKVSCKASGYTFTTYWMHWVRQAPGQGLEWIGEIDPSDSYSNYNQKFKDRATLTVDKSTSTAYMELSSLRSEDTAVYYCARNGGLGPAWFSYWGQGTLVTVSS
VL: DIQMTQSPSSVSASVGDRVTITCKASQYVGTAVAWYQQKPGKSPKLLIYSASNRYTGVPSRFSDSGSGTDFTLTISSLQPEDFATYFCQQYSSYPWTFGGGTKVEIKR
notes: humanized from Ab6; G1; also called Ab1 HC.1a and Ab1 LC.1a
B6: LFA102 (antibody, human IgG1, kappa, V domains shown)
VH: EVQLVESGGGLVQPGGSLRLSCAVSGFTFSSYGMSWVRQAPGKRLEWVATVSSGGTYTYYPDSVKGRFTISRDNSKNTLYLQMNSLRAEDTAMYYCARHRGNYYATYYYAMDYWGQGTLVTVSS
VL: DIVLTQSPDSLAVSLGERATINCKASKSVSTSGYTYMHWYQQKPGQPPKLLIYLASNRESGVPDRFSGSGSGTDFTLTISPVQAEDVATYYCQHSGELPPSFGQGTKLEIKR
notes: humanized IgG1 kappa comparator (WO 2008022295)

target: T1, human PRLR (Biacore antigen); assay: SPR simultaneous binding; PRLR held by surface mAb chAb5
Procedure: (§1) Running buffer was HBS-EP+ (10 mM Hepes, pH7.4, 150 mM NaCl, 3 mM EDTA, 0.05% surfactant). Assay was performed at 12° C. using Biacore T200 and CM5 sensor chips with anti-human IgG (Pierce) amine-coupled in all 4 flow cells to ˜2000 RU.
(§2) Separate test mAbs were captured in flowcells 2, 3 & 4 (flowcell 1 was reference, no test mAb). All 4 flowcells were then blocked by injection with isotype control mAb at 50 ug/ml. All 4 flowcells were then injected with antigen or buffer only (buffer only is for double referencing, done for each mAb pair individually). All 4 flowcells were then injected with 2nd test mAb at 10 ug/ml. All 4 flowcells were then regenerated with glycine, pH1.5.

Binder	solution mAb binding, % of PRLR binding
B1	0%
B2	0%
B3	0%
B4	0%
B5	0%
B6	32%

Target: T2, cyno PRLR ECD-his6 protein
Assay: ELISA on ECD
Summary of the method: (§3)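 PRLR was captured on blocked plates for 1 h, then incubated 1 h with serial antibody dilutions in PBS pH 7.4/0.05% Tween 20 containing 10% Superblock. HRP secondary and TMB gave signal read at 450 nm, and EC50 came from curve fitting.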

Binder	EC50
B1	0.236 nM
B2	0.46 nM
B3	0.862 nM
B4	0.1 nM
B5	0.0575 nM
B6	0.154 nM

target: T3, human PRLR ECD-Fc fusion protein; assay: ELISA on ECD
Summary of the method: as §3

Binder	EC50
B1	0.0746 nM
B2	0.18 nM
B3	4.41 nM
B4	0.221 nM
B5	0.0614 nM
B6	0.053 nM

target: T1, human PRLR (Biacore antigen); assay: SPR simultaneous binding; PRLR held by surface mAb LFA102
Procedure: as §1, §2

Binder	solution mAb binding, % of PRLR binding
B1	-2%
B2	92%
B3	35%
B4	103%
B5	122%
B6	-2%

target: T1, human PRLR (Biacore antigen); assay: SPR simultaneous binding; PRLR held by surface mAb Ab40
Procedure: as §1, §2

Binder	solution mAb binding, % of PRLR binding
B1	-2%
B2	-2%
B3	-2%
B4	-2%
B5	-2%
B6	40%

target: T1, human PRLR (Biacore antigen); assay: SPR simultaneous binding; PRLR held by surface mAb Ab19
Procedure: as §1, §2

Binder	solution mAb binding, % of PRLR binding
B1	-1%
B2	-1%
B3	-1%
B4	-1%
B5	-1%
B6	19%

target: T1, human PRLR (Biacore antigen); assay: SPR simultaneous binding; PRLR held by surface mAb chAb8
Procedure: as §1, §2

Binder	solution mAb binding, % of PRLR binding
B1	-1%
B2	1%
B3	0%
B4	6%
B5	0%
B6	1%

target: T1, human PRLR (Biacore antigen); assay: SPR simultaneous binding; PRLR held by surface mAb chAb7
Procedure: as §1, §2

Binder	solution mAb binding, % of PRLR binding
B1	0%
B2	1%
B3	1%
B4	0%
B5	0%
B6	39%

target: T1, human PRLR (Biacore antigen); assay: SPR simultaneous binding; PRLR held by surface mAb Ab49
Procedure: as §1, §2

Binder	solution mAb binding, % of PRLR binding
B1	-2%
B2	2%
B3	0%
B4	6%
B5	1%
B6	1%

target: T1, human PRLR (Biacore antigen); assay: SPR simultaneous binding; PRLR held by surface mAb chAb6
Procedure: as §1, §2

Binder	solution mAb binding, % of PRLR binding
B1	-2%
B2	0%
B3	-1%
B4	-1%
B5	0%
B6	26%

target: T1, human PRLR (Biacore antigen); assay: SPR Biacore
Summary of the method: (§4)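 Association rate, dissociation rate and dissociation constant were measured by surface plasmon resonance on a Biacore instrument. PRLR antigen was tested at 600 nM, 66.67 nM and 7.41 nM, a 3-point, 9-fold dilution series. Constants came from a 1:1 binding model fit (local Rmax, mass-transport term included) in Biacore T200 Evaluation Software.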

Binder	Kd	koff	kon
B1	0.18 nM	9.84e-05 s⁻¹	546000 M⁻¹ s⁻¹
B2	4.25 nM	0.000715 s⁻¹	168000 M⁻¹ s⁻¹
B3	5.38 nM	0.000823 s⁻¹	153000 M⁻¹ s⁻¹
B4	1.29 nM	0.000437 s⁻¹	339000 M⁻¹ s⁻¹
B5	0.409 nM	0.000403 s⁻¹	985000 M⁻¹ s⁻¹
B6	1.3 nM	0.00073 s⁻¹	560000 M⁻¹ s⁻¹

target: T4, murine PRLR (Biacore antigen); assay: SPR Biacore
Summary of the method: as §4

Binder	Kd	koff	kon
B1	453 nM	0.0983 s⁻¹	217000 M⁻¹ s⁻¹
B2	742 nM	0.0427 s⁻¹	57600 M⁻¹ s⁻¹
B3	1190 nM	0.0534 s⁻¹	45000 M⁻¹ s⁻¹
B4	40 nM	0.0056 s⁻¹	140000 M⁻¹ s⁻¹
B6	26 nM	0.016 s⁻¹	620000 M⁻¹ s⁻¹

target: T5, cyno PRLR (Biacore antigen); assay: SPR Biacore
Summary of the method: as §4

Binder	Kd	koff	kon
B1	9.77 nM	0.00563 s⁻¹	576000 M⁻¹ s⁻¹
B2	4.01 nM	0.000613 s⁻¹	153000 M⁻¹ s⁻¹
B3	5.38 nM	0.000719 s⁻¹	134000 M⁻¹ s⁻¹
B4	1.59 nM	0.000523 s⁻¹	330000 M⁻¹ s⁻¹
B5	0.691 nM	0.000728 s⁻¹	1.05e+06 M⁻¹ s⁻¹
B6	11 nM	0.0095 s⁻¹	880000 M⁻¹ s⁻¹

target: T1, human PRLR (Biacore antigen); assay: SPR simultaneous binding; PRLR held by surface mAb Ab21
Procedure: as §1, §2

Binder	solution mAb binding, % of PRLR binding
B1	-1%
B2	-1%
B3	-1%
B4	-1%
B5	-1%
B6	21%
